Assays:
SAMHD1 HD domain WT [1] = target: T1, SAMHD1 HD domain WT (UniProt Q9Y3Z3 114-626); test: fluorescence anisotropy; no significant difference from d(TG*TTCA); FA: 50 mM Tris pH 8, 100 mM NaCl, 5 mM MgCl2, 1 mM TCEP, 50 nM 6FAM-oligo (salt series with KCl 50-150 mM); SEC same buffer; NMR: 50 mM Tris pH 7.5, 150 mM NaCl, 5 mM MgCl2, 10% D2O; temperature not stated; conditions: protein: recombinant; chain copies: 2; label: 5'-6FAM; single strand
SAMHD1 HD domain WT [2] = target: T1, SAMHD1 HD domain WT; test: fluorescence anisotropy; tolerant to increasing salt (from 50 mM KCl); FA: 50 mM Tris pH 8, 100 mM NaCl, 5 mM MgCl2, 1 mM TCEP, 50 nM 6FAM-oligo (salt series with KCl 50-150 mM); SEC same buffer; NMR: 50 mM Tris pH 7.5, 150 mM NaCl, 5 mM MgCl2, 10% D2O; temperature not stated; conditions: protein: recombinant; chain copies: 2; label: 5'-6FAM; single strand
SAMHD1 HD domain WT [3] = target: T1, SAMHD1 HD domain WT; test: fluorescence anisotropy; FA: 50 mM Tris pH 8, 100 mM NaCl, 5 mM MgCl2, 1 mM TCEP, 50 nM 6FAM-oligo (salt series with KCl 50-150 mM); SEC same buffer; NMR: 50 mM Tris pH 7.5, 150 mM NaCl, 5 mM MgCl2, 10% D2O; temperature not stated; conditions: protein: recombinant; chain copies: 2; label: 5'-6FAM; single strand
SAMHD1 HD domain WT [4] = target: T1, SAMHD1 HD domain WT; test: as above; conditions: protein: recombinant; chain copies: 2; label: 5'-6FAM; single strand; remark: listed apart in the source
SAMHD1 HD domain WT [5] = target: T1, SAMHD1 HD domain WT; test: X-ray crystallography; FA: 50 mM Tris pH 8, 100 mM NaCl, 5 mM MgCl2, 1 mM TCEP, 50 nM 6FAM-oligo (salt series with KCl 50-150 mM); SEC same buffer; NMR: 50 mM Tris pH 7.5, 150 mM NaCl, 5 mM MgCl2, 10% D2O; temperature not stated; conditions: protein: recombinant; chain copies: 2; single strand
SAMHD1 D311A = SAMHD1 D311A (UniProt Q9Y3Z3 114-626, D311A); test: analytical ultracentrifugation; no nucleotides; dimer, S ~6; FA: 50 mM Tris pH 8, 100 mM NaCl, 5 mM MgCl2, 1 mM TCEP, 50 nM 6FAM-oligo (salt series with KCl 50-150 mM); SEC same buffer; NMR: 50 mM Tris pH 7.5, 150 mM NaCl, 5 mM MgCl2, 10% D2O; temperature not stated; conditions: protein: recombinant; chain copies: 2; label: 5'-6FAM; single strand
SAMHD1 K523A = SAMHD1 K523A (UniProt Q9Y3Z3 114-626, K523A); test: size-exclusion chromatography; 50 uM GTP + 50 uM dTTP; 2-fold higher stoichiometry than D311A; FA: 50 mM Tris pH 8, 100 mM NaCl, 5 mM MgCl2, 1 mM TCEP, 50 nM 6FAM-oligo (salt series with KCl 50-150 mM); SEC same buffer; NMR: 50 mM Tris pH 7.5, 150 mM NaCl, 5 mM MgCl2, 10% D2O; temperature not stated; conditions: protein: recombinant; chain copies: 2; label: 5'-6FAM; single strand
SAMHD1 R352A = SAMHD1 R352A (UniProt Q9Y3Z3 114-626, R352A); test: as above; conditions: protein: recombinant; chain copies: 2; label: 5'-6FAM; single strand
Sequence of SAMHD1 R352A (Q9Y3Z3 114-626 R352A): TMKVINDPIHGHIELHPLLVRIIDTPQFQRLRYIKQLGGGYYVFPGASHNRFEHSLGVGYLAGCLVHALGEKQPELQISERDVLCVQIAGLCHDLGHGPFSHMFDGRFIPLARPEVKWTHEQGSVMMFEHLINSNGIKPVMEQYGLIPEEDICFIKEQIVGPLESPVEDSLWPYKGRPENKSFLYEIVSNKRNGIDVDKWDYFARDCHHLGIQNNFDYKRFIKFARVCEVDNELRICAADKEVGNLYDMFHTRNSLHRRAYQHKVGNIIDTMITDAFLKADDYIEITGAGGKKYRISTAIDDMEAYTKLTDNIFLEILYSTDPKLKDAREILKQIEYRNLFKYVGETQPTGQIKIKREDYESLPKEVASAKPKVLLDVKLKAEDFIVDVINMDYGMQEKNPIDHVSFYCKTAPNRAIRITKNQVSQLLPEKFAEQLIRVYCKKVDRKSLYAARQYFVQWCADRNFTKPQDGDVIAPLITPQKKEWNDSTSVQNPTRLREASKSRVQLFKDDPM

T1 sequence (Q9Y3Z3 114-626): as the sequence (Q9Y3Z3 114-626 R352A) above, with A239R counted along it
Sequence of SAMHD1 K523A (Q9Y3Z3 114-626 K523A): as the sequence (Q9Y3Z3 114-626 R352A) above, with A239R, K410A counted along it
Sequence of SAMHD1 D311A (Q9Y3Z3 114-626 D311A): as the sequence (Q9Y3Z3 114-626 R352A) above, with D198A, A239R counted along it

B1: 6FAM-r(UG*UUCA) (ssRNA)
RNA: UGUUCA
modifications: phosphorothioate after G2, mixed Rp/Sp
binding result (SAMHD1 HD domain WT [1]): binds

B2: 6FAM-r(C*G*C*C*U) (ssRNA)
RNA: CGCCU
modifications: phosphorothioate at linkages 1-4, mixed Rp/Sp
binding result (SAMHD1 HD domain WT [2]): binds

B3: 6FAM-d(TG*TTCA) Sp (ssDNA)
DNA: TGTTCA
modifications: phosphorothioate after G2, pure Sp
binding signal (SAMHD1 HD domain WT [3]): ~0.1 affinity relative to Rp

B4: 6FAM oligo with G replaced by A (ssDNA)
DNA: CACCT
modifications: phosphorothioate?
binding result (SAMHD1 HD domain WT [4]): no binding

B5: 6FAM oligo with G replaced by T (ssDNA)
DNA: CTCCT
modifications: phosphorothioate?
binding result (SAMHD1 HD domain WT [4]): no binding

B6: d(C*G*C*C*T) (ssDNA)
DNA: CGCCT
modifications: phosphorothioate at linkages 1-4, mixed Rp/Sp
binding result (SAMHD1 HD domain WT [5]): binds

B7: 6FAM-d(TG*TTCA) Rp (ssDNA)
DNA: TGTTCA
modifications: phosphorothioate after G2, pure Rp
binding signal (SAMHD1 HD domain WT [3]): ~10 fold higher affinity than Sp

B8: r(CGCCU) (ssRNA)
RNA: CGCCU
binding result (SAMHD1 HD domain WT [5]): binds

B9: 6FAM-d(C*G*C*C*T) (ssDNA)
DNA: CGCCT
modifications: phosphorothioate at linkages 1-4, mixed Rp/Sp
binding result (SAMHD1 HD domain WT [2]): binds
binding result (SAMHD1 D311A): binds
binding result (SAMHD1 K523A): binds
binding result (SAMHD1 R352A): binds
